Among the data in paper PMC5910394 (2018) are Kd values, retold here.

Positions of bridges follow the written chain, without caps; N, C: chain ends. No end group written: not given here.

In assay [1] the target is anti-HER2 memAb (trastuzumab-based, meditope-enabled anti-HER2 antibody). In words: SPR. On the technique in general: Surface plasmon resonance follows binding to a sensor surface in real time, without labels.
The target of the next assay is Ile83Glu anti-HER2 memAb. Kind of assay: SPR.
Ile83Glu anti-HER2 memAb, sequence (VH, as listed by the source, chain 1 of 2): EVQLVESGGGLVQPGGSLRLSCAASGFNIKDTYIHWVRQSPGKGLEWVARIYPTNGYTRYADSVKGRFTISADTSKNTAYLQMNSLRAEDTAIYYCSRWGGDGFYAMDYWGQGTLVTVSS
Ile83Glu anti-HER2 memAb, sequence (VL, as listed by the source, chain 2 of 2): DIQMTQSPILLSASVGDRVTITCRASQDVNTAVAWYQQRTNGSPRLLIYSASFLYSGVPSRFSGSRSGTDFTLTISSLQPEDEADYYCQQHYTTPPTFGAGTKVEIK

anti-HER2 memAb (trastuzumab-based, meditope-enabled anti-HER2 antibody), sequence (VH, as listed by the source, chain 1 of 2): as the sequence (VH, as listed by the source, chain 1 of 2) above
anti-HER2 memAb (trastuzumab-based, meditope-enabled anti-HER2 antibody), sequence (VL, as listed by the source, chain 2 of 2): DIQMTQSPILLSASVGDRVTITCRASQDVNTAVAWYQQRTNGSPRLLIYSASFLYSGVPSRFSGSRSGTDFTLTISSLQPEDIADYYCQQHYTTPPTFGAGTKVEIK

B1: 5-diphenylalanine long meditope ((Ac)CQFDA(Ph)2STRRLRCGGSK) (peptide)
peptide: Ac-CQFDASTRRLRCGGSK
modifications: disulfide 1-12 (inferred); not fully specified (residue 5); printed as (Ac)CQFDA(Ph)2STRRLRCGGSK
By Kd is commonly meant the free concentration of one partner at which half of the binding sites on the other are occupied at equilibrium, for simple one-to-one binding. Molecule B1 displayed a Kd in assay [1] of 39 nM.

In turn, CQFDLSTRRLKC (disulfide 1-12 (inferred)) [original meditope (CQFDLSTRRLKC)] had a Kd with Ile83Glu anti-HER2 memAb of 20 nM.
